Measurements published in patent US20240400638A1, “COMBINATION OF RELAXIN AND VASOPRESSIN ANALOGUES FOR TREATMENT OF RENAL DISORDERS OR CONDITIONS” (River 2 Renal Corp., priority 2021, published 2024).
Numbered stars: 1 amine (or outer) side, 2 acyl side, 3 side chain; on linkers, the order of the positions; unused ones are H or OH. Square brackets hold non-standard residues; d marks the D form. Side chains are listed from the residue outwards. * marks the point of attachment. TTDS = 4-[3-[2-[2-(3-aminopropoxy)ethoxy]ethoxy]propylamino]-4-oxo-butanoyl; Trp(5-F) = N[C@@H](Cc1c[nH]c2ccc(F)cc12)C(=O)O; Phe(4-F) = N[C@@H](Cc1ccc(F)cc1)C(=O)O; γGlu = O=C(O)[C@H](CCC(=O)[*:2])N[*:1]; Palmitoyl = CCCCCCCCCCCCCCCC(=O)*; αMeF = C[C@](N)(Cc1ccccc1)C(=O)O; Myristoyl = CCCCCCCCCCCCCC(=O)*; Cit = NC(=O)NCCC[C@H](N)C(=O)O; αMeK = C[C@](N)(CCCCN)C(=O)O; hLys = NCCCCC[C@H](N)C(=O)O; AEEA = NCCOCCOCC(=O)O; Aib = CC(C)(N)C(=O)O

Each binder was assayed against T1, human RXFP1 (human, UniProt Q9HBX9 1-757) (assay: cell-based or functional assay).
T1 sequence (looked up): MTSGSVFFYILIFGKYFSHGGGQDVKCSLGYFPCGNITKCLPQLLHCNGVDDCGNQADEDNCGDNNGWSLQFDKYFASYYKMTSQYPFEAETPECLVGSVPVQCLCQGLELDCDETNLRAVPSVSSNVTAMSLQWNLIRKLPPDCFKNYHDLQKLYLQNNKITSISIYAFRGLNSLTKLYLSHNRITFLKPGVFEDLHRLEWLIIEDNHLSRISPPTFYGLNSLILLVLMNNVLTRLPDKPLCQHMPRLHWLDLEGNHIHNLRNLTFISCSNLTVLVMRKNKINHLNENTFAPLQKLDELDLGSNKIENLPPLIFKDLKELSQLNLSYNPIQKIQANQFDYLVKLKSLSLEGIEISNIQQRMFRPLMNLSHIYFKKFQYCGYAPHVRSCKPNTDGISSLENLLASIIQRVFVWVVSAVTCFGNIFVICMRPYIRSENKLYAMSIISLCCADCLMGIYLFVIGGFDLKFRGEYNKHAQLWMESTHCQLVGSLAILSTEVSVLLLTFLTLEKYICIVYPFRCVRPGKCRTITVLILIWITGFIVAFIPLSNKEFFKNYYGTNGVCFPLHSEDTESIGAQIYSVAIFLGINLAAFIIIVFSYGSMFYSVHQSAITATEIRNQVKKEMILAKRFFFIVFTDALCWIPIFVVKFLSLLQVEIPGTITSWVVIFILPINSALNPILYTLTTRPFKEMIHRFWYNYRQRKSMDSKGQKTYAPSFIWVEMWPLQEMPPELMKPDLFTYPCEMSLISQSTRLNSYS

| Binder | EC50 (nM), OVCAR 5 cells (cAMP) | EMax, OVCAR 5 cells (cAMP) |
| --- | --- | --- |
| Ac-LEGREKVR[Aib]K(Ac)I[Aib][Aib]EGK([TTDS-TTDS-TTDS-γGlu-γGlu-γGlu-Palmitoyl])STWS[Aib]RAK(Ac)-NH2 [Relaxin peptide analogue of SEQ ID NO: 82] | 0.54 nM | 95% |
| Ac-LEGREKVRAK(Ac)I[Aib][Aib]EGK([TTDS-TTDS-TTDS-γGlu-γGlu-γGlu-Palmitoyl])SKWS[Aib]RKK(Ac)-NH2 [Relaxin peptide analogue of SEQ ID NO: 83] | 0.25 nM | 94% |
| Ac-LEGREKVRAK(Ac)I[Aib]IEGK([TTDS-TTDS-TTDS-γGlu-γGlu-γGlu-Palmitoyl])STFS[αMeK]RAK(Ac)-NH2 [Relaxin peptide analogue of SEQ ID NO: 84] | 0.1 nM | 95% |
| Ac-LEGREKVRAK(Ac)I[Aib][Aib]EGK([AEEA-AEEA-AEEA-AEEA-γGlu-γGlu-γGlu-Palmitoyl])STFS[αMeK]RAK(Ac)-NH2 (SMILES CCCCCCCCCCCCCCCC(=O)N[C@@H](CCC(=O)N[C@@H](CCC(=O)N[C@@H](CCC(=O)NCCOCCOCC(=O)NCCOCCOCC(=O)NCCOCCOCC(=O)NCCOCCOCC(=O)NCCCC[C@H](NC(=O)CNC(=O)[C@H](CCC(=O)O)NC(=O)C(C)(C)NC(=O)C(C)(C)NC(=O)[C@@H](NC(=O)[C@H](CCCCNC(C)=O)NC(=O)[C@H](C)NC(=O)[C@H](CCCNC(=N)N)NC(=O)[C@@H](NC(=O)[C@H](CCCCN)NC(=O)[C@H](CCC(=O)O)NC(=O)[C@H](CCCNC(=N)N)NC(=O)CNC(=O)[C@H](CCC(=O)O)NC(=O)[C@H](CC(C)C)NC(C)=O)C(C)C)[C@@H](C)CC)C(=O)N[C@@H](CO)C(=O)N[C@H](C(=O)N[C@@H](Cc1ccccc1)C(=O)N[C@@H](CO)C(=O)N[C@@](C)(CCCCN)C(=O)N[C@@H](CCCNC(=N)N)C(=O)N[C@@H](C)C(=O)N[C@@H](CCCCNC(C)=O)C(N)=O)[C@@H](C)O)C(=O)O)C(=O)O)C(=O)O) [Relaxin peptide analogue of SEQ ID NO: 8] | 1.86 nM | 92% |
| Ac-LEGRERVR[Aib]K(Ac)I[Aib][Aib]EGK([TTDS-TTDS-TTDS-γGlu-γGlu-γGlu-Palmitoyl])STWS[Aib]RRK(Ac)-NH2 [Relaxin peptide analogue of SEQ ID NO: 85] | 0.3 nM | 92% |
| Ac-[Aib]EGREKVRAK(Ac)I[Aib]IEGK([TTDS-TTDS-TTDS-γGlu-γGlu-γGlu-Palmitoyl])STFS[αMeK]RAK(Ac)-NH2 [Relaxin peptide analogue of SEQ ID NO: 86] | 0.3 nM | 95% |
| Ac-LEGREKVRAK(Ac)I[Aib][Aib]EGK([TTDS-TTDS-TTDS-γGlu-γGlu-γGlu-Palmitoyl])STFSRRAK(Ac)-NH2 [Relaxin peptide analogue of SEQ ID NO: 87] | 0.1 nM | 96% |
| Ac-LEGREKVRAK(Ac)I[Aib][Aib]EGK([TTDS-TTDS-TTDS-γGlu-γGlu-γGlu-Palmitoyl])STFS[hLys]RAK(Ac)-NH2 [Relaxin peptide analogue of SEQ ID NO: 88] | 0.17 nM | 96% |
| Ac-LEGREKVRAK(Ac)I[Aib][Aib]EGK([TTDS-TTDS-TTDS-γGlu-γGlu-γGlu-Palmitoyl])ST[αMeF]SRRAK(Ac)-NH2 [Relaxin peptide analogue of SEQ ID NO: 89] | 0.1 nM | 97% |
| Ac-LEGREKVRAK(Ac)IA[Aib]EGK([TTDS-TTDS-TTDS-γGlu-γGlu-γGlu-Palmitoyl])STFS[αMeK]RAK(Ac)-NH2 [Relaxin peptide analogue of SEQ ID NO: 90] | 0.14 nM | 97% |
| Ac-LEGRERVRAK(Ac)I[Aib][Aib]EGK([TTDS-TTDS-TTDS-γGlu-γGlu-γGlu-Palmitoyl])ST[Phe(4-F)]S[Aib]RRK(Ac)-NH2 [Relaxin peptide analogue of SEQ ID NO: 91] | 0.09 nM | 97% |
| Ac-LEGRERVRAK(Ac)I[Aib][Aib]EGK([TTDS-TTDS-TTDS-γGlu-γGlu-γGlu-Palmitoyl])ST[Trp(5-F)]S[Aib]RRK(Ac)-NH2 [Relaxin peptide analogue of SEQ ID NO: 92] | 0.1 nM | 99% |
| Ac-LEGREKVRAK(Ac)I[Aib][Aib]EGK([TTDS-TTDS-TTDS-γGlu-γGlu-γGlu-Palmitoyl])STFTRRAK(Ac)-NH2 [Relaxin peptide analogue of SEQ ID NO: 93] | 0.77 nM | 86% |
| Ac-LEGREKVRAK(Ac)I[Aib][Aib]EGK([TTDS-TTDS-TTDS-γGlu-γGlu-γGlu-Palmitoyl])STFVRRAK(Ac)-NH2 [Relaxin peptide analogue of SEQ ID NO: 94] | 1.74 nM | 88% |
| Ac-LEGREKVRAK(Ac)I[Aib][Aib]EGK([TTDS-TTDS-γGlu-γGlu-Palmitoyl])STFS[αMeK]RAK(Ac)-NH2 [Relaxin peptide analogue of SEQ ID NO: 9] | 0.7 nM | 93% |
| Ac-LEGREKVRAK(Ac)I[Aib][Aib]EGK([TTDS-TTDS-TTDS-γGlu-γGlu-γGlu-Myristoyl])STFS[αMeK]RAK(Ac)-NH2 [Relaxin peptide analogue of SEQ ID NO: 95] | 1.8 nM | 91% |
| Ac-LEGREKVRAK(Ac)I[Aib][Aib]EGK([TTDS-TTDS-TTDS-γGlu-γGlu-γGlu-Myristoyl])STFS[αMeK]RAK-NH2 [Relaxin peptide analogue of SEQ ID NO: 96] | 0.88 nM | 92% |
| Ac-LEGREKVRAK(Ac)I[Aib][Aib]EGK([TTDS-TTDS-TTDS-γGlu-γGlu-γGlu-γGlu-Myristoyl])STFS[αMeK]RAK-NH2 [Relaxin peptide analogue of SEQ ID NO: 97] | 0.29 nM | 98% |
| Ac-LEGREKVRAK(Ac)I[Aib][Aib]EGK([TTDS-TTDS-γGlu-γGlu-γGlu-γGlu-Palmitoyl])STFS[αMeK]RAK(Ac)-NH2 [Relaxin peptide analogue of SEQ ID NO: 10] | 0.79 nM | 95% |
| Ac-LEGREKVRAK(Ac)I[Aib][Aib]EGK([TTDS-TTDS-TTDS-γGlu-γGlu-γGlu-Palmitoyl])STWS[αMeK]RAK(Ac)-NH2 [Relaxin peptide analogue of SEQ ID NO: 11] | 0.83 nM | 93% |
| Ac-LEGREKVRA[Cit]I[Aib][Aib]EGK([TTDS-TTDS-TTDS-γGlu-γGlu-γGlu-Palmitoyl])STFS[αMeK]RAK(Ac)-NH2 [Relaxin peptide analogue of SEQ ID NO: 12] | 0.93 nM | 90% |
| Ac-LEGREKVRAK(Ac)I[Aib][Aib]EGK([TTDS-TTDS-TTDS-γGlu-γGlu-γGlu-Palmitoyl])STFSKRAK(Ac)-NH2 [Relaxin peptide analogue of SEQ ID NO: 13] | 2.12 nM | 91% |
| Ac-LEGREKVRAK(Ac)I[Aib][Aib]EGK([TTDS-TTDS-TTDS-γGlu-γGlu-γGlu-Palmitoyl])STF[dS]KRAK(Ac)-NH2 [Relaxin peptide analogue of SEQ ID NO: 14] | 3.2 nM | 90% |
| Ac-LEGREKVRAK(Ac)I[Aib][Aib]EGK([TTDS-TTDS-TTDS-γGlu-γGlu-γGlu-Palmitoyl])STF[Aib]KRAK(Ac)-NH2 [Relaxin peptide analogue of SEQ ID NO: 15] | 2.1 nM | 85% |
| Ac-LEGREKVRAK(Ac)I[Aib][Aib]EGK([TTDS-TTDS-TTDS-γGlu-γGlu-γGlu-Palmitoyl])STFS[Aib]RAK(Ac)-NH2 [Relaxin peptide analogue of SEQ ID NO: 2] | 2.4 nM | 99% |
| Ac-LEGREKVRAK(Ac)I[Aib][Aib]EGK([TTDS-TTDS-γGlu-γGlu-γGlu-Palmitoyl])STFS[dK]RAK(Ac)-NH2 [Relaxin peptide analogue of SEQ ID NO: 16] | 6.8 nM | 88% |
| Ac-LEGREKVRAK(Ac)I[Aib][Aib]EGK([TTDS-TTDS-γGlu-γGlu-γGlu-Palmitoyl])STWS[dK]RAK(Ac)-NH2 [Relaxin peptide analogue of SEQ ID NO: 17] | 4.6 nM | 91% |
